Series [1] concerns EcoGII adenine methyltransferase. The conditions noted are these: methylation efficiency by DpnII protection; SAM; 0.1% BSA improves.
Series [2] relates to Hia5 adenine methyltransferase. The conditions noted are these: methylation efficiency by DpnII protection; SAM; 0.1% BSA improves.
For series [3], the system named is LMNB1 (Lamin B1) (Homo sapiens). The conditions noted are these: DiMeLo-seq pA-Hia5 in situ, signal:background mA ratio (IgG control 1.6).

For 90-bp duplex with single GATC, the activity in series [1] and in series [2] was 100% each time.
For the substance “constitutive lamina-associated domains (cLADs)”, the binding signal in series [3] worked out at 34.3.

The values above are taken from patent publication US20240240234.
